One series can be described thus: Release test of free diclofenac, felbinac, ketoprofen or naproxen in sodium phosphate buffer (Example 23). It is filed as physicochemical. Conditions: pH 5.3, day 1, free drug (diclofenac, felbinac, ketoprofen or naproxen). As to the method: (set temperature of air conditioner). After confirming that no gel was formed, this solution was dispensed. Immediately after the dissolution, the amount of free diclofenac present in each solution was measured by LC-MS/MS as an initial state (day 0 of storage). Also, the other dispensed solutions were incubated at 37° C. for 1, 3, and 7 days, and then the amount of free diclofenac was measured. […] The MS conditions are as follows. • Ionization mode: ESI-negative • Ion source temperature: 300 degrees • Capillary voltage: -4000 V
With “Diclofenac-(2-Amino-1-(4-(Hydroxymethyl)Piperidin-1-Yl)Ethan-1-One)-Alginic Acid Derivative [Compound 58]”, the “Release Rate in Release Test at pH 5.3” value was found to be 0.0%.

With “Diclofenac-(2-Amino-1-(4-Hydroxypiperidin-1-Yl)Ethan-1-One)-Alginic Acid Derivative [Compound 63b]”, the “Release Rate in Release Test at pH 5.3” value is on record as 0.1%.

Take “Diclofenac-(2-Amino-N-(1-Hydroxypropan-2-Yl)Acetamide)-Alginic Acid Derivative [Compound 80a]”: the “Release Rate in Release Test at pH 5.3” value stood at 0.2%.

On to “Diclofenac-(2-Amino-N-(1-Hydroxypropan-2-Yl)Acetamide)-Alginic Acid Derivative [Compound 80b]”, for which the “Release Rate in Release Test at pH 5.3” value amounted to 0.2%.

As to “Diclofenac-(2-Amino-N-(2-Hydroxyethyl)Acetamide)-Alginic Acid Derivative [Compound 53a]”, the “Release Rate in Release Test at pH 5.3” value came to 0.1%.

For the substance “Diclofenac-(2-Amino-N-(2-Hydroxyethyl)Acetamide)-Alginic Acid Derivative [Compound 53c]”, the “Release Rate in Release Test at pH 5.3” value is recorded as 0.5%.

Regarding “Diclofenac-(2-Amino-N-(2-Hydroxyethyl)Acetamide)-Alginic Acid Derivative [Compound 53d]”, the “Release Rate in Release Test at pH 5.3” value is 0.1%.

With “Diclofenac-(2-Amino-N-(2-Hydroxypropyl)Acetamide)-Alginic Acid Derivative [Compound 72a]”, the “Release Rate in Release Test at pH 5.3” value is 0.0%.

The series is the same for the next values; noted with them: pH 5.3, day 3, free drug (diclofenac, felbinac, ketoprofen or naproxen).
As to “Diclofenac-(2-Amino-1-(4-(Hydroxymethyl)Piperidin-1-Yl)Ethan-1-One)-Alginic Acid Derivative [Compound 58]”, the “Release Rate in Release Test at pH 5.3” value was 0.2%.

On to “Diclofenac-(2-Amino-1-(4-Hydroxypiperidin-1-Yl)Ethan-1-One)-Alginic Acid Derivative [Compound 63b]”, for which the “Release Rate in Release Test at pH 5.3” value is on record as 0.1%.

As for “Diclofenac-(2-Amino-N-(1-Hydroxypropan-2-Yl)Acetamide)-Alginic Acid Derivative [Compound 80a]”, the “Release Rate in Release Test at pH 5.3” value is recorded as 0.4%.

As for “Diclofenac-(2-Amino-N-(1-Hydroxypropan-2-Yl)Acetamide)-Alginic Acid Derivative [Compound 80b]”, the “Release Rate in Release Test at pH 5.3” value turned out to be 0.3%.

Take “Diclofenac-(2-Amino-N-(2-Hydroxyethyl)Acetamide)-Alginic Acid Derivative [Compound 53a]”: the “Release Rate in Release Test at pH 5.3” value is reported as 0.4%.

“Diclofenac-(2-Amino-N-(2-Hydroxyethyl)Acetamide)-Alginic Acid Derivative [Compound 53c]”: the “Release Rate in Release Test at pH 5.3” value stood at 0.9%.

Turning to “Diclofenac-(2-Amino-N-(2-Hydroxyethyl)Acetamide)-Alginic Acid Derivative [Compound 53d]”, the “Release Rate in Release Test at pH 5.3” value turned out to be 0.5%.

Take “Diclofenac-(2-Amino-N-(2-Hydroxypropyl)Acetamide)-Alginic Acid Derivative [Compound 72a]”: the “Release Rate in Release Test at pH 5.3” value turned out to be 0.1%.

The series is the same for the next values; noted with them: pH 5.3, day 7, free drug (diclofenac, felbinac, ketoprofen or naproxen).
As for “Diclofenac-(2-Amino-1-(4-(Hydroxymethyl)Piperidin-1-Yl)Ethan-1-One)-Alginic Acid Derivative [Compound 58]”, the “Release Rate in Release Test at pH 5.3” value was found to be 0.3%.

For “Diclofenac-(2-Amino-1-(4-Hydroxypiperidin-1-Yl)Ethan-1-One)-Alginic Acid Derivative [Compound 63b]”, the “Release Rate in Release Test at pH 5.3” value came to 0.2%.

“Diclofenac-(2-Amino-N-(1-Hydroxypropan-2-Yl)Acetamide)-Alginic Acid Derivative [Compound 80a]”: the “Release Rate in Release Test at pH 5.3” value is recorded as 0.6%.

Consider “Diclofenac-(2-Amino-N-(1-Hydroxypropan-2-Yl)Acetamide)-Alginic Acid Derivative [Compound 80b]”, for which the “Release Rate in Release Test at pH 5.3” value is 0.7%.

As to “Diclofenac-(2-Amino-N-(2-Hydroxyethyl)Acetamide)-Alginic Acid Derivative [Compound 53a]”, the “Release Rate in Release Test at pH 5.3” value was 0.8%.

With “Diclofenac-(2-Amino-N-(2-Hydroxyethyl)Acetamide)-Alginic Acid Derivative [Compound 53c]”, the “Release Rate in Release Test at pH 5.3” value is 1.0%.

Turning to “Diclofenac-(2-Amino-N-(2-Hydroxyethyl)Acetamide)-Alginic Acid Derivative [Compound 53d]”, the “Release Rate in Release Test at pH 5.3” value was determined as 0.6%.

In the case of “Diclofenac-(2-Amino-N-(2-Hydroxypropyl)Acetamide)-Alginic Acid Derivative [Compound 72a]”, the “Release Rate in Release Test at pH 5.3” value was determined as 0.2%.

Still in this series, the particulars now being: pH 7.0, day 1, free drug (diclofenac, felbinac, ketoprofen or naproxen).
With “Diclofenac-(2-Amino-1-(4-(Hydroxymethyl)Piperidin-1-Yl)Ethan-1-One)-Alginic Acid Derivative [Compound 58]”, the “Release Rate in Release Test at pH 7.0” value turned out to be 0.3%.

With “Diclofenac-(2-Amino-1-(4-Hydroxypiperidin-1-Yl)Ethan-1-One)-Alginic Acid Derivative [Compound 63b]”, the “Release Rate in Release Test at pH 7.0” value turned out to be 0.7%.

As to “Diclofenac-(2-Amino-N-(1-Hydroxypropan-2-Yl)Acetamide)-Alginic Acid Derivative [Compound 80a]”, the “Release Rate in Release Test at pH 7.0” value is 0.8%.

For “Diclofenac-(2-Amino-N-(1-Hydroxypropan-2-Yl)Acetamide)-Alginic Acid Derivative [Compound 80b]”, the “Release Rate in Release Test at pH 7.0” value turned out to be 0.7%.

Regarding “Diclofenac-(2-Amino-N-(2-Hydroxyethyl)Acetamide)-Alginic Acid Derivative [Compound 53a]”, the “Release Rate in Release Test at pH 7.0” value is given as 0.9%.

“Diclofenac-(2-Amino-N-(2-Hydroxyethyl)Acetamide)-Alginic Acid Derivative [Compound 53c]”: the “Release Rate in Release Test at pH 7.0” value was 0.9%.

For the substance “Diclofenac-(2-Amino-N-(2-Hydroxyethyl)Acetamide)-Alginic Acid Derivative [Compound 53d]”, the “Release Rate in Release Test at pH 7.0” value worked out at 0.7%.

In the case of “Diclofenac-(2-Amino-N-(2-Hydroxypropyl)Acetamide)-Alginic Acid Derivative [Compound 72a]”, the “Release Rate in Release Test at pH 7.0” value is on record as 0.3%.

Still in this series, the particulars now being: pH 7.0, day 3, free drug (diclofenac, felbinac, ketoprofen or naproxen).
As to “Diclofenac-(2-Amino-1-(4-(Hydroxymethyl)Piperidin-1-Yl)Ethan-1-One)-Alginic Acid Derivative [Compound 58]”, the “Release Rate in Release Test at pH 7.0” value is 1.3%.

Turning to “Diclofenac-(2-Amino-1-(4-Hydroxypiperidin-1-Yl)Ethan-1-One)-Alginic Acid Derivative [Compound 63b]”, the “Release Rate in Release Test at pH 7.0” value is 1.9%.

Consider “Diclofenac-(2-Amino-N-(1-Hydroxypropan-2-Yl)Acetamide)-Alginic Acid Derivative [Compound 80a]”, for which the “Release Rate in Release Test at pH 7.0” value worked out at 2.4%.

In the case of “Diclofenac-(2-Amino-N-(1-Hydroxypropan-2-Yl)Acetamide)-Alginic Acid Derivative [Compound 80b]”, the “Release Rate in Release Test at pH 7.0” value came to 2.3%.

For the substance “Diclofenac-(2-Amino-N-(2-Hydroxyethyl)Acetamide)-Alginic Acid Derivative [Compound 53a]”, the “Release Rate in Release Test at pH 7.0” value is listed as 3.7%.

For the substance “Diclofenac-(2-Amino-N-(2-Hydroxyethyl)Acetamide)-Alginic Acid Derivative [Compound 53c]”, the “Release Rate in Release Test at pH 7.0” value is given as 2.5%.

“Diclofenac-(2-Amino-N-(2-Hydroxyethyl)Acetamide)-Alginic Acid Derivative [Compound 53d]”: the “Release Rate in Release Test at pH 7.0” value stood at 3.0%.

“Diclofenac-(2-Amino-N-(2-Hydroxypropyl)Acetamide)-Alginic Acid Derivative [Compound 72a]”: the “Release Rate in Release Test at pH 7.0” value is 1.0%.

The series is the same for the next values; noted with them: pH 7.0, day 7, free drug (diclofenac, felbinac, ketoprofen or naproxen).
On to “Diclofenac-(2-Amino-1-(4-(Hydroxymethyl)Piperidin-1-Yl)Ethan-1-One)-Alginic Acid Derivative [Compound 58]”, for which the “Release Rate in Release Test at pH 7.0” value is 3.1%.

For “Diclofenac-(2-Amino-1-(4-Hydroxypiperidin-1-Yl)Ethan-1-One)-Alginic Acid Derivative [Compound 63b]”, the “Release Rate in Release Test at pH 7.0” value worked out at 2.5%.

As to “Diclofenac-(2-Amino-N-(1-Hydroxypropan-2-Yl)Acetamide)-Alginic Acid Derivative [Compound 80a]”, the “Release Rate in Release Test at pH 7.0” value amounted to 5.3%.

Take “Diclofenac-(2-Amino-N-(1-Hydroxypropan-2-Yl)Acetamide)-Alginic Acid Derivative [Compound 80b]”: the “Release Rate in Release Test at pH 7.0” value is recorded as 5.6%.

On to “Diclofenac-(2-Amino-N-(2-Hydroxyethyl)Acetamide)-Alginic Acid Derivative [Compound 53a]”, for which the “Release Rate in Release Test at pH 7.0” value was 10.0%.

In the case of “Diclofenac-(2-Amino-N-(2-Hydroxyethyl)Acetamide)-Alginic Acid Derivative [Compound 53c]”, the “Release Rate in Release Test at pH 7.0” value amounted to 7.4%.

As to “Diclofenac-(2-Amino-N-(2-Hydroxyethyl)Acetamide)-Alginic Acid Derivative [Compound 53d]”, the “Release Rate in Release Test at pH 7.0” value was 9.3%.

With “Diclofenac-(2-Amino-N-(2-Hydroxypropyl)Acetamide)-Alginic Acid Derivative [Compound 72a]”, the “Release Rate in Release Test at pH 7.0” value stood at 2.2%.

(Values after US20230190943A1, “ALGINIC ACID DERIVATIVE BONDED TO NONSTEROIDAL ANTI-INFLAMMATORY COMPOUND” (MOCHIDA PHARMACEUTICAL CO., LTD., priority 2018, published 2023).)
